Experimental findings from US20160017049A1 (Genentech, published 2016) are described below.

In test [1] the target is T1, human GPC3 C-terminal fragment, amino acids 359 to 560, with GPI link (human, UniProt P51654 359-560).
T1 construct: also called huGPC(aa359-560); not shown: C-terminal glycophosphatidylinositol anchor (GPI link)
T1 sequence: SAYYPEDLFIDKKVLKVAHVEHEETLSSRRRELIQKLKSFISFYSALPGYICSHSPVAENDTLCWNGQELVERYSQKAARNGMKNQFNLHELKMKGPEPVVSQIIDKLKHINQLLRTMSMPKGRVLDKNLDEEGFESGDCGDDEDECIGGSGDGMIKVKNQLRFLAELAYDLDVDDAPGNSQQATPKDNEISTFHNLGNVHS
The test is described as follows: FACS on 293S cells expressing the C-terminal fragment of GPC3. The text has this: C-terminal truncation constructs of human GPC3 were made to further refine the epitopes for antibodies 7H1 and 4G7. […] The three C-terminal truncations each comprised the GPC N-terminal signal sequence (SS) and C-terminal glycophosphatidylinositol anchor (GPI link). […] See FIG. 7 (Santa Cruz Biotechnology antibody 1G12, which was raised to amino acids 511-580 of human GPC3, was used as a positive control for C-terminal fragment binding). Antibody 7H1 was reformatted as a chimeric antibody with human A118C cysteine-engineered IgG1 and Igκ constant regions (SEQ ID NOs: 42 and 43).

The target of test [2] is T2, human GPC3 N-terminal fragment, amino acids 25 to 358, with GPI link (human, UniProt P51654 25-358).
T2 construct: not shown: C-terminal glycophosphatidylinositol anchor (GPI link)
Description: Western blot probed with 7H1, lysate of stably transfected cells. (A western blot detects proteins with antibodies after separation by electrophoresis.)

Test [3] addresses T3, human GPC3 C-terminal truncation, amino acids 25 to 247, with GPI link (human, UniProt P51654 25-247).
T3 construct: not shown: C-terminal glycophosphatidylinositol anchor (GPI link)
Description: Western blot probed with 7H1, lysate of transiently transfected cells.

Test [4] deals with T4, human GPC3 C-terminal truncation, amino acids 25 to 137, with GPI link (human, UniProt P51654 25-137).
T4 construct: not shown: C-terminal glycophosphatidylinositol anchor (GPI link)
Described as above.

Test [5] deals with T5, huGPC(aa359-559) (human, UniProt P51654 359-559).
T5 construct: Expressed on the surface of 293 cells
T5 sequence: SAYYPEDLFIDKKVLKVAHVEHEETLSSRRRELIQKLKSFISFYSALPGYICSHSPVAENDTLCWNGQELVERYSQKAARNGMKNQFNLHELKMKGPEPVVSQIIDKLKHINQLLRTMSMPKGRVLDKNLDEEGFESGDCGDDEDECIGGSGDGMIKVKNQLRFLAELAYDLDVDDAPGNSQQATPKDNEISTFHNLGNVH
The test is described as follows: FACS on 293 cells expressing the gD-tagged fragment. On the procedure: (§1) C-terminal truncation constructs of huGPC(aa359-589) were made to further refine the epitopes for antibodies 4A11 and 15G1. […] The three C-terminal truncations each comprised an HSV N-terminal signal sequence (SS) and gD sequence (SEQ ID NO: 41) and C-terminal glycophosphatidylinositol anchor (GPI link). The huGPC truncation constructs were expressed on the surface of 293 cells and antibody binding was determined by FACS. An anti-gD was used as a positive control. Vector-transfected 293 cells were used as a negative control.

Test [6] addresses T6, huGPC(aa359-509) (HSV; human).
T6 construct: Expressed on the surface of 293 cells; not shown: C-terminal glycophosphatidylinositol anchor (GPI link)
T6 chain: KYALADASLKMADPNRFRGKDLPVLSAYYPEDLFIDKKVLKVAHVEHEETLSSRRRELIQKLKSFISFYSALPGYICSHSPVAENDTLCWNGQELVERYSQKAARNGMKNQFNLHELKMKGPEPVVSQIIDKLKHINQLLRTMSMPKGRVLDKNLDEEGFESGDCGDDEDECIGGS
Described as above. The method, then:
as §1

Test [7] concerns the target T7, huGPC(aa359-470) (HSV; human).
T7 construct: Expressed on the surface of 293 cells; not shown: C-terminal glycophosphatidylinositol anchor (GPI link)
T7 chain: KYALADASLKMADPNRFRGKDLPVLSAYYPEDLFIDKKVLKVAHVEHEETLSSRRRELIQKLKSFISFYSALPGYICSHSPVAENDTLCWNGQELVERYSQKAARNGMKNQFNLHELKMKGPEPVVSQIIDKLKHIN
Described as above. The method, then: as §1

T4 sequence (P51654 25-137): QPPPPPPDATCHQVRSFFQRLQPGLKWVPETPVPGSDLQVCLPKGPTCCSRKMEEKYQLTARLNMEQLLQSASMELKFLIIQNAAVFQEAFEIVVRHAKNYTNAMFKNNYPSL
T3 sequence (P51654 25-247): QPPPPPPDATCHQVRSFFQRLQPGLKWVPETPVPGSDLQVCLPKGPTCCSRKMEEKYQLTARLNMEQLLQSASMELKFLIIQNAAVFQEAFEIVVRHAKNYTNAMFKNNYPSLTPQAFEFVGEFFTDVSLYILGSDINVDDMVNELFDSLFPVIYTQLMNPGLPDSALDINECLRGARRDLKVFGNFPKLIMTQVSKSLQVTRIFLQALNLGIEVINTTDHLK
T2 sequence (P51654 25-358): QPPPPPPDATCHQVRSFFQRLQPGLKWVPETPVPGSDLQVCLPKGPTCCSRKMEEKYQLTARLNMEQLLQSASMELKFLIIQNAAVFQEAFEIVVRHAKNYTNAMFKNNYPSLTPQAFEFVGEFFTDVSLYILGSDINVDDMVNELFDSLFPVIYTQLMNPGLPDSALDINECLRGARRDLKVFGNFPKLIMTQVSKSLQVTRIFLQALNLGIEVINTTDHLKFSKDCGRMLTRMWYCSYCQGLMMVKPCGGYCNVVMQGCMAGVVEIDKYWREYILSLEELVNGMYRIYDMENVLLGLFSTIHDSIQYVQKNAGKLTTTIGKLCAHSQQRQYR

B1: antibody 7H1 (antibody, V domains shown)
VH: QVQLQQSGPELVKPGASVKISCKASGYTFTDYYINWVKQKPGQGLEWIGWIYPGSGHTECNETFKGKATLTVDTSSSTAYMQLSSLTSEDTAVYFCTRGYYAPMGYFDYWGQGTTLTVSS
VL: DIQMTQSPSSLSASLGERVSLTCRASQEISGYLSWLQQKPDGTIKRLIYAASTLDSGVPKRFSGSRSGSDYSLTISGLESEDFADYYCLQYASYPYTFGGGTKLEIK
notes: Mouse monoclonal from Balb/c mice immunised with huGPC3 ECD-Flag
Consider B1, for which the binding result was “no binding” in test [1], “binds” in test [2], “binds” in test [3] and “binds” in test [4].

B2: antibody 4A11 (antibody, human IgG1, kappa)
heavy: not shown
light: DIVMTQSPSSMYASLGERVTITCKASQDINSYLSWFQQKPGKSPKTLIYRVNRLVDGVPSRFSGSGSGQDYSLTISSLEYEDVGIYYCLQYDEFPLTLGAGTKLELKRTVAAPSVFIFPPSDEQLKSGTASVVCLLNNFYPREAKVQWKVDNALQSGNSQESVTEQDSKDSTYSLSSTLTLSKADYEKHKVYACEVTHQGLSSPVTKSFNRGEC
notes: also called 4A11 thio-HC A118C
For B2, the binding result in test [5] and in test [6] was “binds” each time.

B3: antibody 15G1 (antibody, human IgG1, kappa, V domains shown)
VH: EVQLLETGGGLVQPGGSRGLSCEGSGFTFSGFWMSWVRQTPGKTLEWIGDINSDGSSINYAPSIKDRFTIFRDNDKSILYLQMTNVRSEDTGTYFCVTTYGDYWGQGTTLTVSS
VL: DIVMTQSQKFMSTSVGDRVSVTCKASQNVGSHVGWYQQKSGQSPKALIYSASNRYIGVPDRFTGSGSGTDFTLTISNVQSEDLAEYFCQQYHIYPYTFGGGTRLEIKR
notes: also called 15G1 thio-HC A118C
For the molecule B3, the binding result in test [5], in test [6] and in test [7] was “binds” in each case.

B4: antibody 4G7 (antibody, V domains shown)
VH: EVQLQQSGTVLARPGASVKMSCKASGYTFTSYWVHWVKQRPGQGLEWIGAIYPGNIDASYNQKFKGKAKLTAVTSTSTAYMELSSLTNEDSAVYYCSYDYDAWFVYWGQGTLVTVSA
VL: DIQMTQSHKFMSTSVGDRVSITCKASQDVSTAVAWYQQKPGQSPTLLIYSASYRYTGVPDRFTGSGSGTDFTFTISSVQAEDLAVYYCQQHYFTPRTFGGGTKLELK
For B4, in test [1], the binding result is “no binding”.
